Test results as given in paper PMC4005638, “Interactions between the non-seed region of siRNA and RNA-binding RLC/RISC proteins, Ago and TRBP, in mammalian cells”.

Key:
TRBP = biological target: T1, TRBP (Homo sapiens, UniProt Q15633 1-366); assay: EMSA; virtually no binding; TRBP EMSA: 20 mM Tris pH 7.5, 150 mM NaCl, 2 mM EDTA, 1 mM 2-ME, 1 mM DTT, 50 ng/ml salmon sperm DNA, RNasin, 0.5 nM siRNA, 30 min; PAZ EMSA: 1 pmol/ul PAZ, 5 fmol/ul siRNA, 20 mM Tris-HCl pH 7.5, 100 mM NaCl, 2 mM EDTA, 1 mM DTT, 5% glycerol, 50 ng/ul poly(dA-dT), RNasin, 30 min, room temperature; conditions: protein: recombinant; tags: N-terminal 6xHis; label: 32P guide strand; 19 bp, 2-nt 3' overhangs
T1 sequence: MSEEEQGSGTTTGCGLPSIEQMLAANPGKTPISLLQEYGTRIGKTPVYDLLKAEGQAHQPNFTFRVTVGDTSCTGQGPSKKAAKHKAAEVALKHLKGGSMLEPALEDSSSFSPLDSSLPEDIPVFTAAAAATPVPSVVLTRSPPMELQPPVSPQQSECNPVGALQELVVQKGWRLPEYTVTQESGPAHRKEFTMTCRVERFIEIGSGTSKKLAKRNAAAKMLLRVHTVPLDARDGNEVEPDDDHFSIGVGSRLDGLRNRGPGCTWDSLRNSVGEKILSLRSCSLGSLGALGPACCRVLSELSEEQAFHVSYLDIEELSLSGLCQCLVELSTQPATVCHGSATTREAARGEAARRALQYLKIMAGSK

[1] = biological target: T2, GST-PAZ (human AGO1 PAZ domain) (Homo sapiens, UniProt Q9UL18 222-376); assay: EMSA; TRBP EMSA: 20 mM Tris pH 7.5, 150 mM NaCl, 2 mM EDTA, 1 mM 2-ME, 1 mM DTT, 50 ng/ml salmon sperm DNA, RNasin, 0.5 nM siRNA, 30 min; PAZ EMSA: 1 pmol/ul PAZ, 5 fmol/ul siRNA, 20 mM Tris-HCl pH 7.5, 100 mM NaCl, 2 mM EDTA, 1 mM DTT, 5% glycerol, 50 ng/ul poly(dA-dT), RNasin, 30 min, room temperature; conditions: protein: recombinant; tags: N-terminal GST, C-terminal 6xHis; label: 32P guide strand; 19 bp, 2-nt 3' overhangs
[2] = biological target: T2, GST-PAZ (human AGO1 PAZ domain); assay: EMSA; strong; TRBP EMSA: 20 mM Tris pH 7.5, 150 mM NaCl, 2 mM EDTA, 1 mM 2-ME, 1 mM DTT, 50 ng/ml salmon sperm DNA, RNasin, 0.5 nM siRNA, 30 min; PAZ EMSA: 1 pmol/ul PAZ, 5 fmol/ul siRNA, 20 mM Tris-HCl pH 7.5, 100 mM NaCl, 2 mM EDTA, 1 mM DTT, 5% glycerol, 50 ng/ul poly(dA-dT), RNasin, 30 min, room temperature; conditions: protein: recombinant; tags: N-terminal GST, C-terminal 6xHis; label: 32P guide strand; 19 bp, 2-nt 3' overhangs

T2 sequence (Q9UL18 222-376): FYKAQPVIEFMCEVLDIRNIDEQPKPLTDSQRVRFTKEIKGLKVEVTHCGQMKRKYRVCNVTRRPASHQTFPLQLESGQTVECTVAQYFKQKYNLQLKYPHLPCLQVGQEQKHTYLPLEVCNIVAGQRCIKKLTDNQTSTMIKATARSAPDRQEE

B1: siLuc-36 siDNA (dsDNA)
DNA 1: TCTTCCAGCGGATAGAATGGC
DNA 2: CATTCTATCCGCTGGAAGATG
modifications: all ribonucleotides replaced by DNA
- binding result (TRBP): no binding
- binding result [1]: no binding

B2: siLuc-36 nonmodified (dsRNA)
RNA 1: UCUUCCAGCGGAUAGAAUGGC
RNA 2: CAUUCUAUCCGCUGGAAGAUG
- binding result [1]: binds

B3: siLuc2-153 siDNA (dsDNA)
DNA 1: TCGAAGTATTCCGCGTACGTG
DNA 2: CGTACGCGGAATACTTCGATT
modifications: all ribonucleotides replaced by DNA
- binding result (TRBP): no binding

B4: siLuc-36 TCA-RNA (mixed)
DNA 1: TCTTCCAGCGGATAGAAUGGC
DNA 2: CAUUCTAUCCGCTGGAAGATG
modifications: DNA: seed duplex and subdomain B (guide 1-8, 13-14; passenger 6-7, 12-21)
- binding result [2]: binds
